Consider 116 sequences from the supplement of paper PMC10724198.

± gives the standard deviation of the averaged measurements.
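Also: PSI is a weighted mean of sequencing reads over stability bins, variants kept only with over 10 reads, mCherry proximal and sfGFP distal, peptide attached via GGGS linker.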

The subject of the data set is Saccharomyces cerevisiae. The experiment in a line: protein stability index of tFT-peptide fusion (C-terminal peptide) (PSI (0-1 scale)); higher = more stable (slower turnover). The following applies: genetic background: wild type; temperature: 30 C.
Turning to KQRGSNYGCGYG, the protein stability index turned out to be 0.615 ± 0.026.

In turn, KQWGTHSSWLEV had a protein stability index of 0.701 ± 0.076.

In turn, KREEGKTKKKKQ showed a protein stability index of 0.666 ± 0.023.

For the sequence KREKAQEGQGGD, the protein stability index was 0.709 ± 0.025.

With KRESNSKQTEKV, the protein stability index came out at 0.7 ± 0.099.

Sequence KRGNEEYSRGNN displayed a protein stability index of 0.692 ± 0.012.

In turn, KRGNGIEGRVGG gave a protein stability index of 0.685 ± 0.011.

In the case of KRKKNISKTEKS, the protein stability index is 0.724 ± 0.016.

As for KRKKNTRENGED, the protein stability index turned out to be 0.778 ± 0.022.

Take KRKRSERRRGKP: the protein stability index is 0.693 ± 0.015.

The sequence KRMPDERAKAGP yielded a protein stability index of 0.694 ± 0.0079.

KRNCVVLLPMDR returned a protein stability index of 0.682 ± 0.23.

KRNEQQKNDRKK came in with a protein stability index of 0.653 ± 0.046.

On to KRRIGKYEERME, for which the protein stability index is 0.661 ± 0.022.

On to KRRKREEKKSMT, for which the protein stability index was found to be 0.742 ± 0.097.

Take KRRTGKEGRIRR: the protein stability index is 0.723 ± 0.021.

The sequence KSDSRISGTVVV displayed a protein stability index of 0.652 ± 0.059.

The sequence KSDTAWSHPYPS displayed a protein stability index of 0.6793 ± 0.00097.

In turn, KSEKQKSNRKEF yielded a protein stability index of 0.686 ± 0.071.

As for KSGEHSCCRSAD, the protein stability index was found to be 0.602 ± 0.038.

For KSKKQYTKKTRK, the protein stability index was determined as 0.709 ± 0.0078.

KSKLSSRTKLTH gave a protein stability index of 0.64 ± 0.03.

On to KSKTENKEKATK, for which the protein stability index was 0.716 ± 0.1.

Regarding KSLNTAGVLTGR, the protein stability index is 0.68 ± 0.034.

KSPIPMRAPGNS displayed a protein stability index of 0.633 ± 0.053.

Turning to KSQKKKKKNKNF, the protein stability index turned out to be 0.57 ± 0.044.

KSSAGAGQCPLS yielded a protein stability index of 0.712 ± 0.019.

As to KSYKRICTKKSR, the protein stability index came to 0.782 ± 0.096.

In turn, KTDSEPNKRIHK came in with a protein stability index of 0.707 ± 0.09.

The sequence KTEGQEKRVMSE came in with a protein stability index of 0.734 ± 0.046.

The sequence KTKDGKNNRRTN registered a protein stability index of 0.687 ± 0.009.

KTKEETNENRNL showed a protein stability index of 0.719 ± 0.027.

For the sequence KTNWKKKERKKA, the protein stability index was 0.675 ± 0.027.

In the case of KTQNVNDQGEET, the protein stability index stood at 0.644 ± 0.062.

Consider KTTERRQTKSRV, for which the protein stability index is 0.688 ± 0.085.

Consider KTVPRMESRVRA, for which the protein stability index was 0.718 ± 0.053.

KVKREEKRKRED showed a protein stability index of 0.712 ± 0.033.

In turn, KVLGRPVGMAYI returned a protein stability index of 0.666 ± 0.034.

On to KVWGPAVPAVPP, for which the protein stability index was determined as 0.666 ± 0.065.

As to KWNVFRKGRGNI, the protein stability index came to 0.793 ± 0.047.

The sequence KYTSQRSPRIFR had a protein stability index of 0.573 ± 0.2.

In turn, KYVYFAPVLDVI registered a protein stability index of 0.659 ± 0.033.

In turn, LAAGGSAGTRVV yielded a protein stability index of 0.656 ± 0.026.

In turn, LAAVCFYPFCCF had a protein stability index of 0.641 ± 0.017.

LACWAGGLGWGG returned a protein stability index of 0.772 ± 0.044.

On to LAFPFSPLAPQI, for which the protein stability index was 0.691 ± 0.077.

The sequence LAGNNVSFMRVR had a protein stability index of 0.714 ± 0.059.

With LAGPYGRVTVFF, the protein stability index came out at 0.67 ± 0.029.

With LAHACQRRQTEA, the protein stability index amounted to 0.786 ± 0.11.

LALTIVKFGDLS showed a protein stability index of 0.789 ± 0.057.

LAPASPTHPHPP yielded a protein stability index of 0.679 ± 0.0087.

On to LAPLYFSPFPFP, for which the protein stability index was determined as 0.689 ± 0.041.

The sequence LAPPHLPPPLHK had a protein stability index of 0.678 ± 0.053.

As for LAPPPPVPPTHS, the protein stability index came out at 0.721 ± 0.052.

Sequence LARGPDETPAGA came in with a protein stability index of 0.668 ± 0.18.

LASPPIIVFSQM registered a protein stability index of 0.556 ± 0.016.

For the sequence LATGLVIETLWE, the protein stability index stood at 0.753 ± 0.042.

LAVGAAGVLFGG displayed a protein stability index of 0.776 ± 0.03.

Regarding LAVLRFHLRRHL, the protein stability index stood at 0.668 ± 0.065.

For LAVSSAPLLSSF, the protein stability index turned out to be 0.723 ± 0.071.

The sequence LCACRMVGFRGG returned a protein stability index of 0.538 ± 0.045.

For the sequence LCCTLPSRGVIV, the protein stability index is 0.5993 ± 0.0059.

The sequence LCGGLSLPFAHV returned a protein stability index of 0.691 ± 0.097.

LCLFPSSFRLPP came in with a protein stability index of 0.6489 ± 0.0051.

LCMGVRGRVGVF registered a protein stability index of 0.682 ± 0.088.

Sequence LCPGYVDSRCRG had a protein stability index of 0.6959 ± 0.0034.

LCRVFAGFLSVG gave a protein stability index of 0.689 ± 0.036.

As to LCSIESGPICIL, the protein stability index worked out at 0.676 ± 0.0097.

As to LCSSASFFFSVL, the protein stability index was found to be 0.67 ± 0.059.

On to LCSSSLRPFFPE, for which the protein stability index is 0.754 ± 0.024.

Sequence LCSTSLTPMRPT displayed a protein stability index of 0.699 ± 0.021.

In turn, LCTALLRSLTVG registered a protein stability index of 0.744 ± 0.13.

In turn, LCWGGRCGSGPG showed a protein stability index of 0.72 ± 0.051.

The sequence LDLELNRRCRTS yielded a protein stability index of 0.675 ± 0.06.

LDLYRYLQDLGC showed a protein stability index of 0.731 ± 0.018.

LDSWKQDLYTVC came in with a protein stability index of 0.674 ± 0.033.

On to LDTVVNGAIPIL, for which the protein stability index amounted to 0.699 ± 0.051.

LDVQPVHPVDPE came in with a protein stability index of 0.778 ± 0.013.

For the sequence LEAINRKGIWQE, the protein stability index worked out at 0.639 ± 0.083.

Turning to LEFFPSSRFFGF, the protein stability index was determined as 0.773 ± 0.026.

With LEITKKKIGLKY, the protein stability index came to 0.716 ± 0.13.

On to LETVPVPPPPSA, for which the protein stability index was determined as 0.747 ± 0.057.

In turn, LETVWRFECGWG displayed a protein stability index of 0.7759 ± 0.0048.

For LEWVRPCDLFPC, the protein stability index is 0.7198 ± 0.005.

LFDLVVDSYGHI showed a protein stability index of 0.753 ± 0.034.

For LFFFPPVPISSV, the protein stability index was 0.601 ± 0.0008.

LFFSIVSPPCGR showed a protein stability index of 0.748 ± 0.068.

As for LFGLLSSPLCVD, the protein stability index turned out to be 0.63 ± 0.042.

On to LFLFPPVLTFPL, for which the protein stability index was determined as 0.625 ± 0.035.

LFLRPSGLPTLL displayed a protein stability index of 0.69 ± 0.083.

LFLSAFFFRFFD returned a protein stability index of 0.629 ± 0.045.

The sequence LFPAGSSLCGAI registered a protein stability index of 0.753 ± 0.061.

Turning to LFPGVHRVEDRA, the protein stability index was 0.675 ± 0.034.

Regarding LFPRSVPIAINL, the protein stability index is 0.6259 ± 0.0045.

Consider LFPSFRSLSFVI, for which the protein stability index worked out at 0.672 ± 0.035.

On to LFPSPPPPRSSL, for which the protein stability index amounted to 0.7697 ± 0.005.

In turn, LFQVRLVDLSRI showed a protein stability index of 0.674 ± 0.049.

For LFRLFFVKACRF, the protein stability index turned out to be 0.516 ± 0.0025.

Regarding LFRLRLFPHPHF, the protein stability index is 0.645 ± 0.087.

In turn, LFRPGDLVYHSV yielded a protein stability index of 0.727 ± 0.026.

Sequence LFSLFLRSPLTS came in with a protein stability index of 0.664 ± 0.035.

Consider LFSRDASSFRFF, for which the protein stability index was 0.658 ± 0.032.

Regarding LFVFSVCSWPRV, the protein stability index was found to be 0.579 ± 0.04.

LFVSCGGCLAMF: the protein stability index was determined as 0.687 ± 0.0077.

LFWARLSLVSLS yielded a protein stability index of 0.495 ± 0.041.

As for LFYHLFWLFCSC, the protein stability index was found to be 0.634 ± 0.046.

For the sequence LFYRTLPLPWPA, the protein stability index is 0.742 ± 0.02.

LGAGLIGCALVE displayed a protein stability index of 0.645 ± 0.036.

Sequence LGAIGFVVVGGL returned a protein stability index of 0.622 ± 0.029.

The sequence LGALTPSIAGGP came in with a protein stability index of 0.64 ± 0.01.

In turn, LGCGDSRSMVSL showed a protein stability index of 0.6875 ± 0.0033.

Sequence LGEAGGWSLGFG displayed a protein stability index of 0.73 ± 0.018.

Regarding LGFDRGGGGAGM, the protein stability index amounted to 0.675 ± 0.062.

Regarding LGFFGGGRGAGG, the protein stability index was found to be 0.677 ± 0.016.

With LGFLRRERLVPS, the protein stability index stood at 0.697 ± 0.057.

LGFSCHGRPPCS registered a protein stability index of 0.699 ± 0.085.
